From patent publication US20230061838A1 (SORRENTO THERAPEUTICS, published 2023)

Target: T1, CD20 antigen (UniProtKB P11836 - gene MS4A1), on Daudi cells (Homo sapiens, UniProt P11836 1-297)
T1 sequence: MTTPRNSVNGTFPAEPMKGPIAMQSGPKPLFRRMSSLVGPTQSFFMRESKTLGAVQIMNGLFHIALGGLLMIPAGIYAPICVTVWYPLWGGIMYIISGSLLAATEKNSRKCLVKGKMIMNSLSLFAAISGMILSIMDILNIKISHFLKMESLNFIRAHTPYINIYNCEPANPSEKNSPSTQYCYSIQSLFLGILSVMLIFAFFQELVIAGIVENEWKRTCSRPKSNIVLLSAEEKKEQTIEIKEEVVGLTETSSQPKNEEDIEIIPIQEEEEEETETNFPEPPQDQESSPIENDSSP
Test: cell-based or functional assay

- fold-change of expansion over four days of co-culture: > 10 fold
B1: anti-CD20 dimeric antigen receptor (CD20 DAR), expressed on primary human T cells (other)
heavy: QVQLQQPGAELVKPGASVKMSCKASGYTFTSYNMHWVKQTPGRGLEWIGAIYPGNGDTSYNQKFKGKATLTADKSSSTAYMQLSSLTSEDSAVYYCARSTYYGGDWYFNVWGAGTTVTVSAASTKGPSVFPLAPSSKSTSGGTAALGCLVKDYFPEPVTVSWNSGALTSGVHTFPAVLQSSGLYSLSSVVTVPSSSLGTQTYICNVNHKPSNTKVDKRVEPKSCDKTHTPRKIEVMYPPPYLDNEKSNGTIIHVKGKHLCPSPLFPGPSKPFWVLVVVGGVLACYSLLVTVAFIIFWVKRGRKKLLYIFKQPFMRPVQTTQEEDGCSCRFPEEEEGGCELRVKFSRSADKGERRRGKGHDGLYQGLSTATKDTYDALHMQALPPR
light: QIVLSQSPAILSASPGEKVTMTCRASSSVSYIHWFQQKPGSSPKPWIYATSNLASGVPVRFSGSGSGTSYSLTISRVEAEDAATYYCQQWTSNPPTFGGGTKLEIKRTVAAPSVFIFPPSDEQLKSGTASVVCLLNNFYPREAKVQWKVDNALQSGNSQESVTEQDSKDSTYSLSSTLTLSKADYEKHKVYACEVTHQGLSSPVTKSFNRGEC
